According to US20260008815A1, “CYCLIC PEPTIDE OR SALT THEREOF, AND USES THEREOF” (FUJIFILM Corporation, priority 2023, published 2026):
Bridge positions count the residues as written; N and C are the ends. Ends that are not written are not given here. COCH2 = acetyl group that carries the bridge

B1: cyclic peptide SEQ ID NO: 118 (peptide)
peptide: LCPVPQQTDYLRWYQIIHK(COCH2)Q
modifications: thioether 2-19
B2: cyclic peptide SEQ ID NO: 112 (peptide)
peptide: HCQPEYELYYIYLYLNALK(COCH2)I
modifications: thioether 2-19
B3: cyclic peptide SEQ ID NO: 122 (peptide)
peptide: QCENWVNSTQFEFFWQYK(COCH2)T
modifications: thioether 2-18
B4: cyclic peptide SEQ ID NO: 127 (peptide)
peptide: YCPYNFYNIIQFHYFLTYK(COCH2)T
modifications: thioether 2-19
B5: cyclic peptide SEQ ID NO: 108 (peptide)
peptide: LCRNYINPQQWRYFALYK(COCH2)Y
modifications: thioether 2-18
B6: cyclic peptide SEQ ID NO: 117 (peptide)
peptide: LCRNYINPQQWRYFALYK(COCH2)N
modifications: thioether 2-18
B7: cyclic peptide SEQ ID NO: 124 (peptide)
peptide: DCRDLQLFYIYQYLDALKK
modifications: not fully specified; thioether ring (C)-(K(acetyl))
B8: cyclic peptide SEQ ID NO: 38 (peptide)
peptide: QCSYLYQYVFERYKVTVPK(COCH2)D
modifications: thioether 2-19; not fully specified; printed as Q-(C)-SYLYQYVFERYKVTVP-(K(acetyl))-D
B9: cyclic peptide SEQ ID NO: 126 (peptide)
peptide: LCEINWLSQEQYGYFIEYK(COCH2)T
modifications: thioether 2-19
B10: cyclic peptide SEQ ID NO: 432 (peptide)
peptide: CENYLDPEQYQYFHYFK(COCH2)Y
modifications: thioether 1-17 (inferred)
B11: cyclic peptide SEQ ID NO: 39 (peptide)
peptide: QCENWLSQDQWKYFWQYK(COCH2)I
modifications: thioether 2-18; not fully specified; printed as Q-(C)-ENWLSQDQWKYFWQY-(K(acetyl))-I
B12: cyclic peptide SEQ ID NO: 123 (peptide)
peptide: QCQNFITEVQFTYFWHYK(COCH2)T
modifications: thioether 2-18
B13: cyclic peptide SEQ ID NO: 34 (peptide)
peptide: CRALLRGAPFHLAEC
modifications: disulfide 1-15
notes: also called cyclic peptide reported in WO2000/003245A
B14: cyclic peptide SEQ ID NO: 36 (peptide)
peptide: CRALLRGAPFHLAEK(COCH2)
modifications: thioether 1-15
B15: cyclic peptide SEQ ID NO: 115 (peptide)
peptide: NCPNYWSQIQWHYFQAYK(COCH2)Q
modifications: thioether 2-18
B16: cyclic peptide SEQ ID NO: 110 (peptide)
peptide: QCQTDHQQQLYFIYQYLQK(COCH2)I
modifications: thioether 2-19
B17: cyclic peptide SEQ ID NO: 109 (peptide)
peptide: DCFINELQYFYIQQYKK
modifications: not fully specified; thioether ring (C)-(K(acetyl))
B18: cyclic peptide SEQ ID NO: 107 (peptide)
peptide: YCTDNYIDDIQFWYLFLYK(COCH2)Q
modifications: thioether 2-19
B19: cyclic peptide SEQ ID NO: 114 (peptide)
peptide: YCTDNYIDDIQFWYLFLYK(COCH2)H
modifications: thioether 2-19
B20: cyclic peptide SEQ ID NO: 119 (peptide)
peptide: QCRYFWQYVLERYRVRLPK(COCH2)E
modifications: thioether 2-19
B21: cyclic peptide SEQ ID NO: 132 (peptide)
peptide: ECQENFVDRQQYWYFLSYK(COCH2)F
modifications: thioether 2-19
B22: cyclic peptide SEQ ID NO: 113 (peptide)
peptide: RCINYWSGQQFYFFQQYK(COCH2)F
modifications: thioether 2-18
B23: linear peptide SEQ ID NO: 35 (peptide)
peptide: YRSRKYSSWYVALKR
modifications: not fully specified
B24: cyclic peptide SEQ ID NO: 42 (peptide)
peptide: QCYFLSQYILERYKVHK(COCH2)L
modifications: thioether 2-17
B25: cyclic peptide SEQ ID NO: 121 (peptide)
peptide: DCYWDDQQYSFLQLYK(COCH2)R
modifications: thioether 2-16
B26: cyclic peptide SEQ ID NO: 116 (peptide)
peptide: QCYQNWYLYQYLVERYYK(COCH2)D
modifications: thioether 2-18
B27: cyclic peptide SEQ ID NO: 40 (peptide)
peptide: DCSGNFFSKEQFHYLELFK(COCH2)K
modifications: thioether 2-19; not fully specified; printed as D-(C)-SGNFFSKEQFHYLELF-(K(acetyl))-K
B28: cyclic peptide SEQ ID NO: 37 (peptide)
peptide: QCQLNYWDDLQFTYYLQYK(COCH2)V
modifications: thioether 2-19
B29: cyclic peptide SEQ ID NO: 125 (peptide)
peptide: YCRDNYFYLEQWQYLYLYK(COCH2)H
modifications: thioether 2-19
B30: cyclic peptide SEQ ID NO: 130 (peptide)
peptide: HCDGNWWNSQQFFYLLLYK(COCH2)H
modifications: thioether 2-19
B31: cyclic peptide SEQ ID NO: 111 (peptide)
peptide: QCDQEFYLALYAWTLRSYK(COCH2)L
modifications: thioether 2-19
B32: cyclic peptide SEQ ID NO: 129 (peptide)
peptide: ECPWNFVNQLQWQYFITYK(COCH2)V
modifications: thioether 2-19
B33: cyclic peptide SEQ ID NO: 128 (peptide)
peptide: PCVQNYFNDLQWIFLQHYK(COCH2)R
modifications: thioether 2-19
B34: cyclic peptide SEQ ID NO: 120 (peptide)
peptide: QCWYIQQYIWERYFLWHNK(COCH2)E
modifications: thioether 2-19
B35: cyclic peptide SEQ ID NO: 41 (peptide)
peptide: LCGNYITPLQWKYFQTYK(COCH2)W
modifications: thioether 2-18

Target: T1, Recombinant Human FGFR2 alpha (IIIc) Fc Chimera Protein (Homo sapiens, UniProt P21802)
T1 construct: Fc (chimera); purchased R&D systems 712-FR-050
Test: ELISA binding affinity of enzymatically synthesized peptide to FGFR
Settings: ELISA luminescence signal at 10 nmol/L peptide, SEQ ID NO: 47 at 10 nmol/L standardized to 1; enzyme synthesis product
Experimental: The binding affinity of the peptide to FGFR was evaluated using an ELISA method.
The binding affinity of the enzymatically synthesized peptide to FGFR was measured by evaluating the amount of the peptide bound to FGFR by ELISA.
First, 5 ng of Recombinant Human FGFR2 alpha (IIIc) Fc Chimera Protein (R&D systems, 712-FR-050) was immobilized in each well of a 96-well plate, and blocked with Pierce Protein-Free (PBS) Blocking Buffer (Thermo, 37572), and a peptide diluted with Can Get Signal Immunoreaction Enhancer Solution I (TOYOBO, NKB-101) was then added and reacted at room temperature for 3 hours. After washing with 0.05% Tween 20-containing phosphate buffered saline (PBS), an anti-Myc antibody (Cell Signaling, 14038S) diluted with Can Get Signal Immunoreaction Enhancer Solution II (TOYOBO, NKB-101) was added and reacted at room temperature for 2 hours. After washing with 0.05% Tween 20-containing PBS, SuperSignal ELISA Femto Substrate (Thermo, 37075) was added, and the luminescence amount was measured. The dose-response relationship was calculated from using the difference between the luminescence amount in the well in which FGFR was immobilized and the luminescence amount in the well in which FGFR was not immobilized, and the concentration of the peptide at the time of reaction, and the binding affinity to FGFR was evaluated according to the following evaluation criteria. The evaluation result preferably satisfies the evaluation criteria A, B, or C.
In a case where a value of a luminescence signal emitted by the cyclic peptide set forth in SEQ ID NO: 47 at a reaction concentration of 10 nmol/L is standardized to 1, evaluation criteria of the luminescence signal value emitted by the cyclic peptide at a reaction concentration of 10 nmol/L is as follows. • A: 0.7 or more • B: 0.5 or more and less than 0.7 • C: 0.1 or more and less than 0.5 • D: less than 0.1.

T1 sequence (P21802 with tags, fused parts or gaps limits assumed): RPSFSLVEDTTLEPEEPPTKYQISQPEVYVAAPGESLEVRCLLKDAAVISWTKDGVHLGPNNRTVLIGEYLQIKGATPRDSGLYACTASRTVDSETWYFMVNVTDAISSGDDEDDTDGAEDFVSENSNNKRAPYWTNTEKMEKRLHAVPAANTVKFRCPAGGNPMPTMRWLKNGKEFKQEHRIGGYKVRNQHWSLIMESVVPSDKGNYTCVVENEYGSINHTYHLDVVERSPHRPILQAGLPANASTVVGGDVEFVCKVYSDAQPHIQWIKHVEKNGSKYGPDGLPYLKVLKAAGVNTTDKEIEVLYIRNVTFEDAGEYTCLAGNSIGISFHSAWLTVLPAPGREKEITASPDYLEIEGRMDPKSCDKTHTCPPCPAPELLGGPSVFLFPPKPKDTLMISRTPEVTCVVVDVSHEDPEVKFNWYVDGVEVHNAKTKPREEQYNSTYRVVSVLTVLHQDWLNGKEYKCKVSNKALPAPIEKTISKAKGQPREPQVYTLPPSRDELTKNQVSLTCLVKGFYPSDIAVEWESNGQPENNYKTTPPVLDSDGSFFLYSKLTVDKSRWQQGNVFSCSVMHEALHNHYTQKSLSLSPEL

Evaluation result of binding affinity to FGFR | Molecule
A (0.7 or more) | 269 (YCEENYLDPEQYRYFIYFK(COCH2)Y; thioether 2-19) [compound 269]
B (0.5 or more and less than 0.7) | 171 (YCEFNYLDPEQYQYFIYFK(COCH2)Y; thioether 2-19 (inferred)) [compound 171]
A (0.7 or more) | 225 (YCEENYLDFEQYQYFIYFK(COCH2)Y; thioether 2-19 (inferred)) [compound 225]
C (0.1 or more and less than 0.5) | 200 (YCEENYNDPEQYQYFIYFK(COCH2)Y; thioether 2-19 (inferred)) [compound 200]
C (0.1 or more and less than 0.5) | 361 (QCYYLYWYLYK(COCH2)I; thioether 2-11) [compound 361]
A (0.7 or more) | 207 (YCEENYLGPEQYQYFIYFK(COCH2)Y; thioether 2-19 (inferred)) [compound 207]

Target: T2, Recombinant Human FGFR2 alpha (IIIc) Fc Chimera Protein, CF (R&D systems, 712-FR-050) (human, UniProt P21802 22-377)
T2 construct: bought; not shown: Fc part of the chimera
Test: ELISA on plate-bound FGFR2-Fc
Settings: not given
Procedure, shortened: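 Plate-immobilized FGFR2 alpha (IIIc)-Fc (5 ng/well) incubated with peptide 3 h at room temperature, then anti-Myc antibody 2 h and chemiluminescent ELISA substrate. Signal corrected by subtracting FGFR-free wells; binding affinity scored into categories from the dose-response.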

T2 sequence (P21802 22-377, change not shown): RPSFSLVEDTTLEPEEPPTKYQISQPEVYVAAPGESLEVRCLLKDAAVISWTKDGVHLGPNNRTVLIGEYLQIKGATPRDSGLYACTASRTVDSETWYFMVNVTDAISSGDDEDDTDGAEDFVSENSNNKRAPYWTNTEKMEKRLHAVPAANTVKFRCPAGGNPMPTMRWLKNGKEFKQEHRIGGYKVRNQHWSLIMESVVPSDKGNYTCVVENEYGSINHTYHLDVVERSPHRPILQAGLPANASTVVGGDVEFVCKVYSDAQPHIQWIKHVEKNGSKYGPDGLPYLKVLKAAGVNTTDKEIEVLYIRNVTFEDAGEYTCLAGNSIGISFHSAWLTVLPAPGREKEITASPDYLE

ELISA luminescence signal at 10 nmol/L peptide, relative to SEQ ID NO: 47 (=1) [ratio] | Molecule
0.1 to 0.5 | B1
0.1 to 0.5 | B2
0.5 to 0.7 | B3
≥ 0.7 | B4
≥ 0.7 | B5
≥ 0.7 | B6
0.1 to 0.5 | B7
≥ 0.7 | B8
≥ 0.7 | B9
0.1 to 0.5 | B10
≥ 0.7 | B11
≥ 0.7 | B12
< 0.1 | B13
< 0.1 | B14
≥ 0.7 | B15
0.1 to 0.5 | B16
0.5 to 0.7 | B17
0.5 to 0.7 | B18

ELISA luminescence signal at 10 nmol/L peptide, relative to SEQ ID NO: 47 (=1) [ratio] | Molecule
≥ 0.7 | B19
≥ 0.7 | B20
≥ 0.7 | B21
0.1 to 0.5 | B22
< 0.1 | B23
≥ 0.7 | B24
≥ 0.7 | B25
0.1 to 0.5 | B26
≥ 0.7 | B27
≥ 0.7 | B28
≥ 0.7 | B29
≥ 0.7 | B30
0.1 to 0.5 | B31
≥ 0.7 | B32
≥ 0.7 | B33
0.1 to 0.5 | B34
≥ 0.7 | B35
